Assay results: patent US9340588B2, “Peptide secreted by Lactobacillus plantarum with immunomodulating function” (Imperial Innovations Limited, priority 2011, dated 2016)

Columns and labels:
[1] = test system: enriched dendritic cells from human blood (LDCs); test: Surface marker expression on blood-enriched dendritic cells (LDCs), flow cytometry; assay type: cell-based; conditions: for activation molecule CD83 on DCs / co-stimulating molecule CD40 on DCs / induction of MHC type II molecules (HLA-DR) on DCs: ST peptide 0.1-10 μg/mL or LPS 100 ng/mL, FIG. 5 panel B
Description: (§1) The dendritic cells were obtained from healthy patients who had neither autoimmune diseases, nor inflammatory diseases nor allergies nor malignant tumors. These subjects had given their written consent for their blood to be used for scientific purposes. The peripheral blood mononuclear cells (PBMCs) were isolated by differential centrifugation in Ficoll-Paque Plus (Amersham Biosciences, Chalfont St. Giles, UK). The cellular fraction LDC (low-density cells) was obtained by overnight centrifugation in NycoPrepe™ solution. The cells present in this LDC fraction were HLA-DR positive in 98-100% of cases, with morphological characteristics typical of the DCs (Ng, et al. (2009). A novel population of human CD56+ human leukocyte antigen D-related (HLA-DR+) colonic lamina propria cells is associated with inflammation in ulcerative colitis. Clin. Exp. Immuno1.158, 205-218).
(§2) Half a million LDCs per milliliter were cultured in complete medium (Dutch modified RPMI 1640 (Sigma-Aldrich, Dorset, UK) containing 100 U/mL penicillin/streptomycin, 2 mM L-glutamine, […] gentamicin (Sigma-Aldrich) and fetal bovine serum at 10% (v/v) (TCS cellworks, Buckingham, UK)). These cultures were carried out in the presence of the ST peptide identified as SEQ ID NO: 1 purified at concentrations of 10 μg/mL, 1 μg/mL and 0.1 μg/mL, and of LPS (100 ng/mL) (Sigma-Aldrich, St. Louis, USA) as positive control. The results were compared with parallel cultures without ST peptide identified as SEQ ID NO: 1 nor added LPS, acting as negative controls.
For the various experiments, labeling of the cells with the various antibodies (Table 1) was carried out in PBS supplemented with 1 mM EDTA and sodium azide at 0.02% (w/v) (FACS buffer). Labeling was carried out for 20 minutes in ice, in the dark. The cells were then washed with FACS buffer and were fixed with paraformaldehyde at 1% (v/v) in saline solution, and stored at 4° C. until acquisition of data in the flow cytometer. The negative controls used were isotype-matched antibodies without specificity, labeled with the same fluorochrome, which were obtained from the same company (isotype controls).
(§3) The flow cytometry data were obtained in a FACSCalibur cytometer (BD Biosciences), and the data were analyzed with the WinList 5.0 software (Verity, Me., US). The proportion of samples positive for a particular marker was determined relative to isotype controls. For quantification by histograms, an analysis was performed with the WinList software, in which the histogram of isotype staining was subtracted from the histogram of specific staining using normalized superenhanced Dmax (SED) substraction (Bagwell, C. B. (2005). Hyperlog—a flexible log-like transform for negative, zero, and positive valued data. Cytometry. 64, 34-42).

[2] = test system: enriched dendritic cells from human blood (LDCs); test: Intracellular cytokine production in blood-enriched dendritic cells (LDCs), monensin 4 h, flow cytometry; assay type: cell-based; conditions: ST peptide 0.1-10 μg/mL, 4 h monensin window, FIG. 6
Description: as §1
as §2, with “The results were compared with parallel cultures without ST peptide identified as SEQ ID NO: 1 nor added LPS, acting as negative controls.” left out
as §3
The DCs were cultured for 4 hours in the presence/absence of monensin. […] This protocol has been extensively validated by our colleagues (Hart et al., (2005) Characteristics of intestinal dendritic cells in inflammatory bowel diseases. Gastroenterology. 129, 50-65) and makes it possible to quantify changes in the natural production of cytokines by the DCs in the absence of external stimuli such as PMA and/or ionomycin. Using this approach, the intracellular content of each cytokine is not determined. Instead, the changes induced in the production of cytokines in a temporal window of 4 hours (incubation time with monensin) are determined independently of the initial content of cytokines.

[3] = test system: T lymphocytes stimulated by enriched dendritic cells from blood (LDC); test: T lymphocytes stimulated with blood LDCs conditioned with ST peptide: homing markers and cytokines; assay type: cell-based, human
Method: (§4) The T lymphocytes were obtained from peripheral blood mononuclear cells (PBMCs). The PBMCs, obtained from freshly drawn blood as described in example 1, were resuspended in MiniMACs buffer (PBS supplemented with bovine serum albumin 0.5% (w/v) and EDTA 2 mM). This suspension was enriched with T cells by removing the CD14 positive, CD19 positive and HLA-DR positive cells with immuno-magnetized beads (Miltenyi Biotech, Bisley, UK) following the manufacturer's instructions. A percentage of T cells of 94.91%±1.06 (mean±standard deviation) was obtained as the mean value of all the extractions/enrichments.
(§5) The T cells were labeled with 5-carboxyfluorescein diacetate succinimidyl ester (CFSE, Invitrogen Ltd, UK) according to the manufacturer's instructions. The T cells thus labeled (4×10^5 cells per well) were incubated for 5 days with DCs at 0, 1, 2 or 3% in microtiter plates with U-shaped bottom. The proliferating T cells were identified and quantified by flow cytometry as those that contained a small amount of CFSE (CFSE^low) (FIG. 8).
The remaining flow cytometry protocols were carried out as described in section 1 of example 1.

[4] = test system: dendritic cells from colon mucosa biopsies (intestinal DC); test: Intracellular cytokine production in dendritic cells from colon mucosa biopsies; assay type: cell-based, human
Method: The DCs were cultured for 4 hours in the presence/absence of monensin. Then they were stained for the surface markers as described above. Next they were fixed with LeucopermA, and permeabilized with LeucopermB before adding the intracellular staining antibodies. After incubation, the DCs were washed in FACS buffer, were fixed and were acquired as described above. The analysis was performed by the SED substraction detailed above, where the histogram of each cytokine of the DCs that had not been incubated with monensin were subtracted from the histogram of each cytokine of the DCs that had been incubated in the […] of monensin. This protocol has been extensively validated by our colleagues (Hart et al., (2005) Characteristics of intestinal dendritic cells in inflammatory bowel diseases. Gastroenterology. 129, 50-65) and makes it possible to quantify changes in the natural production of cytokines by the DCs in the absence of external stimuli such as PMA and/or ionomycin. Using this approach, the intracellular content of each cytokine is not determined. Instead, the changes induced in the production of cytokines in a temporal window of 4 hours (incubation time with monensin) are determined independently of the initial content of cytokines.
Biopsies from the colon were obtained from three healthy patients, who had given their written consent to participate in this study (one woman and two men, age range 30-58 years). These patients had normal intestines, both macroscopically and histologically, and had been examined after reporting changes in intestinal transit or rectal bleeding. Once obtained, the biopsies were collected in complete medium cooled to 4° C. and were processed before the first hour counting from when they were obtained. The biopsies were incubated in Hanks's balanced salt solution (HBSS) (Gibco BRL, Paisley, Scotland, UK) containing 1 mM dithiothreitol (DTT) (Sigma-Aldrich) for 20 minutes. Next, they were incubated in a 1 mM solution of ethylenediaminetetraacetic acid (EDTA) in order to remove both the epithelial cells and the layer of mucus and its associated bacteria. […] The cellular suspensions of mononuclear cells of the lamina propria (200000 cells/mL) were incubated for 4 hours in the presence of the ST peptide identified as SEQ ID NO: 1 purified (10 μg/mL) and in the presence/absence, in its turn, of monensin, with their corresponding negative controls. The DCs of the lamina propria were identified by flow cytometry from the presence of the markers HLA-DR+ and CD3-CD14-CD16-CD19-CD34- (Hart et al. (2005) Characteristics of intestinal dendritic cells in inflammatory bowel diseases. Gastroenterology, 129, 50-65).
The remaining procedures followed in this example were the same as in section 1 of example 1.

[5] = test system: T lymphocytes stimulated by enriched dendritic cells from colon biopsies (gut DC); test: T lymphocytes stimulated with intestinal mucosa DCs conditioned with ST peptide: homing markers and cytokines; assay type: cell-based, human; conditions: T cells stimulated with gut DCs pulsed with ST peptide, vs basal gut DC
Method: as §4, §5
This example is the same as the preceding example, except in this case DCs isolated from intestinal mucosa were used.

[6] = ST peptide 0.1, 1 or 10 μg/mL, FIG. 5
[7] = T cells co-incubated with LDCs pre-incubated with ST peptide, FIGS. 10 and 11
[8] = T cells incubated 5 days with LDCs pre-incubated with ST peptide, FIG. 9
[9] = colon biopsies of healthy patients, ST peptide 10 μg/mL, 4 h, FIG. 7
[10] = single donor with abnormal IL-12 production, FIG. 14

lipopolysaccharide [LPS, reference compound]
activation molecule CD83 on DCs [1]: did induce overexpression | co-stimulating molecule CD40 on DCs [1]: did induce overexpression | induction of MHC type II molecules (HLA-DR) on DCs [1]: did induce overexpression

B1: ST peptide: Peptide of 73 amino acids rich in serine and threonine, derived from protein D1 secreted by Lactobacillus plantarum; SEQ ID NO: 1 (protein, listed as Lactobacillus plantarum)
chain: GEVDGDSTTTTSTSTQTTQQTTTTQSSAQTSQTQAQPSQASQTQSSQTQTSKPAAQTTQTSSSTSNYHHHHHH
modifications: (1)..(73) ST peptide sequence
marker of migration to intestinal mucosa integrin β7 on DCs [1, 6]: did not produce changes | marker of migration to skin CLA on DCs [1, 6]: did not produce changes | activation molecule CD83 on DCs [1]: Nor did the peptide produce changes | co-stimulating molecule CD40 on DCs [1]: Nor did the peptide produce changes | induction of MHC type II molecules (HLA-DR) on DCs [1]: Nor did the peptide produce changes | production of intracellular TGFβ in LDCs [2]: did not affect | synthesis of IL-6 in LDCs [2]: reduction in the synthesis | synthesis of IL-10 in LDCs [2]: increase in the synthesis | synthesis of IL-12 in LDCs [2]: reduction in the synthesis | production of IFNγ in T cells [3, 7]: decreased | production of IL-17 in T cells [3, 7]: decreased | CLA (marker of migration to skin) in T lymphocytes [3, 8]: increased considerably | integrin β7 (marker of migration to intestinal mucosa) in T lymphocytes [3, 8]: decrease | production of IL-10 in intestinal DCs [4, 9]: increase in the production | production of IL-12 in intestinal DCs [4, 9]: absence of any increase in the production | production of IL-10 in colon mucosa DCs of a donor with unusually high IL-12 [4, 10]: increasing the production | production of IL-12 in colon mucosa DCs of a donor with unusually high IL-12 [4, 10]: completely cancelled the production | production of IL-10 in T cells ([5]; FIG. 12): even greater increase in the production | production of TGFβ in T cells ([5]; FIG. 12): even greater increase | lymphocytes expressing the marker of migration to skin (CLA) ([5]; FIG. 13): greater number of lymphocytes
